Measured values from paper PMC8781159, “Implication of Potential Differential Roles of the Two Phosphoglucomutase Isoforms in the Protozoan Parasite Cryptosporidium parvum” (Pathogens, 2021).

Columns and labels:
[1] = target: T1, CpPGM1B long form (rCpPGM1B-L) (Cryptosporidium parvum, UniProt Q5CTF2); experiment: G6PDH-coupled assay, NADH formation at […] nm; assay type: biochemical; conditions: 50 mM Tris-HCl pH 8.5, 1.0 mM MgCl2, 0.2 mM NAD+, 2 mM G1P
T1 construct: gene cgd2_3270; linker plus PGM1 domain; signal peptide (63 nt) removed (full ORF 2013 bp); MBP-fusion (pMAL-c5x), E. coli BL21(DE3), MBP kept
T1 sequence (Q5CTF2 24-670): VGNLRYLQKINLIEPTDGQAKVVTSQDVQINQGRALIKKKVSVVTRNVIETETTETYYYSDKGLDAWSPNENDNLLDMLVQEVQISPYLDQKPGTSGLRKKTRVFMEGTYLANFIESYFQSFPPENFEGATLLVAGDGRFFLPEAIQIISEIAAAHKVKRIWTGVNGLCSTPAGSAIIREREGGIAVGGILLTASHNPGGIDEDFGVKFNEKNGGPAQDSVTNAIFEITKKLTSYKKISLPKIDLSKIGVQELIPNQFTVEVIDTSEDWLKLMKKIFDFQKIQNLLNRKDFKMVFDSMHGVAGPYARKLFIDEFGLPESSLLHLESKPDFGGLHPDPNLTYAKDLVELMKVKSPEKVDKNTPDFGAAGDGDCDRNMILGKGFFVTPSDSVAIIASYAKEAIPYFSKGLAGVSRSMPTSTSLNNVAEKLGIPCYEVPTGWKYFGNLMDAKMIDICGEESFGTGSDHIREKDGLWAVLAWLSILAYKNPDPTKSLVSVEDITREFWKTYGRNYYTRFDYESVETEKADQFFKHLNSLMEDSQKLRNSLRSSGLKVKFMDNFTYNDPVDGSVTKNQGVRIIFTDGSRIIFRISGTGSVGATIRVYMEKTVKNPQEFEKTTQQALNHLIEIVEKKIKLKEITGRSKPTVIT

purified protein = substrate: O=P(O)(O)O[C@H]1O[C@H](CO)[C@@H](O)[C@H](O)[C@H]1O; experiment: purified protein; assay type: biochemical, Cryptosporidium parvum; conditions: 50 mM Tris-HCl pH 8.5, 1.0 mM MgCl2, 0.2 mM NAD+

**Q.** With `O=P(O)(O)O[C@H]1O[C@H](CO)[C@@H](O)[C@H](O)[C@H]1O` [G1P, glucose-1-phosphate] as the molecule, how does the “G6PDH-coupled assay, NADH formation at 340 nm” value [1] read?
**A.** The value was “rCpPGM1A, rCpPGM1B-L and rCpPGM1B-S) displayed activity in converting G1P to G6P”.

B1: CpPGM1A (rCpPGM1A) (Cryptosporidium parvum) (protein)
chain: MEQVQVTPYLDQKPGTSGLRKKTRVFMEGTYLANFIESYFQSFPPENFEGATLLVAGDGRFFLPEAIQIISEIAAAHKVKRIWTGVNGLCSTPAGSAIIREREGGIAVGGILLTASHNPGGIDEDFGVKFNGKNGGPAQDSVTNTIFEITKKLTSYKKISLPKIDLSKIGVQELIPNQFTVEVIDTSEDWLKLMKKIFDFQKIQNLLNRKDFKMAFDSMHGVAGPYARKLFVDEFGLPESSLLHLESKPDFGGLHPDPNLTYAKDLVELMKVKSPEKVDKSTPDFGAAGDGDCDRNMILGKGFFVTPSDSVAIIASYAKEAIPYFSKGLAGVSRSMPTSTSLNNVAEKLGIPCYEVPTGWKYFGNLMDAKMIDICGEESFGTGSDHIREKDGLWAVLAWLSILAHKNPDPTKPLVSVEDITREFWKTYGRNYYTRFDYESIETEKADQFFKHLNSLMEDHQKLREIIKPYGIDIKLTDNFTYNDPVDKSVAKNQGLRFIFQDNSRVVFRLSGTGSVGATIRIYIEKTVSDQTKVNSTSNEILGDLIEIVEKKIKLKESTGRDRPTVIT
**Q.** Which Km (purified protein) does the source give for B1 here?
**A.** Its Km is 0.17 mM.

B2: CpPGM1B short form (rCpPGM1B-S) (Cryptosporidium parvum Iowa II) (protein)
chain: LLDMLVQEVQISPYLDQKPGTSGLRKKTRVFMEGTYLANFIESYFQSFPPENFEGATLLVAGDGRFFLPEAIQIISEIAAAHKVKRIWTGVNGLCSTPAGSAIIREREGGIAVGGILLTASHNPGGIDEDFGVKFNEKNGGPAQDSVTNAIFEITKKLTSYKKISLPKIDLSKIGVQELIPNQFTVEVIDTSEDWLKLMKKIFDFQKIQNLLNRKDFKMVFDSMHGVAGPYARKLFIDEFGLPESSLLHLESKPDFGGLHPDPNLTYAKDLVELMKVKSPEKVDKNTPDFGAAGDGDCDRNMILGKGFFVTPSDSVAIIASYAKEAIPYFSKGLAGVSRSMPTSTSLNNVAEKLGIPCYEVPTGWKYFGNLMDAKMIDICGEESFGTGSDHIREKDGLWAVLAWLSILAYKNPDPTKSLVSVEDITREFWKTYGRNYYTRFDYESVETEKADQFFKHLNSLMEDSQKLRNSLRSSGLKVKFMDNFTYNDPVDGSVTKNQGVRIIFTDGSRIIFRISGTGSVGATIRVYMEKTVKNPQEFEKTTQQALNHLIEIVEKKIKLKEITGRSKPTVIT
notes: PGM1 domain only; signal peptide and ~80 aa linker removed (full ORF 2013 bp); MBP-fusion (pMAL-c5x), E. coli BL21(DE3), MBP kept
**Q.** How did the Km (purified protein) turn out when B2 was run?
**A.** The Km was 0.13 mM.
